# Target: Cys32 (UniProt position 32, FSATWCGPCKM)
# Details: Reduced (free thiol) form is presumed; not explicitly stated for the pKa determination.
substance,measurement,value
"Thioredoxin-1 (native recombinant human TRX, rhTRX) (Homo sapiens)",pKa,6.3

# Reference: article PMC12622487
